Measured values taken from US7205275 (dated 2007).
Primed or numbered codes have the meaning given here. Where no end group is shown, it is not given here. [ ]: non-standard residue; d: D form. Fc(4) = non-antigen-binding fragment of an antibody (from proteolytic digestion of a whole antibody); Fc = immunoglobulin Fc domain fused to the peptide (peptibody); Fc(7) = Fc domain, peptide fused N- or C-terminal to it

T1: human Ang-2 (human, UniProt O15123)
T1 chain: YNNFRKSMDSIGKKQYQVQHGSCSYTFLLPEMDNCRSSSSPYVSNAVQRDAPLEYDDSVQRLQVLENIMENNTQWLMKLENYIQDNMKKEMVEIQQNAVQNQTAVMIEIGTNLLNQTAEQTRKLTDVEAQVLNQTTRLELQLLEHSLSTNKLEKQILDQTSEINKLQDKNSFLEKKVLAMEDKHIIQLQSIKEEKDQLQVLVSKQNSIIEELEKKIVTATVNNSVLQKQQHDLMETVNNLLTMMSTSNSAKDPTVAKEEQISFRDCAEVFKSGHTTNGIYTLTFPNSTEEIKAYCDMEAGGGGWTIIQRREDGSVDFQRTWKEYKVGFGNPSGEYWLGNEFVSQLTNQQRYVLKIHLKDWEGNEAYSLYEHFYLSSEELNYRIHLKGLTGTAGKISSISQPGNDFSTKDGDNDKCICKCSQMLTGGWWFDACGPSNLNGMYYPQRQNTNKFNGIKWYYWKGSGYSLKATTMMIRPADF

B1: Con4-27 (C) (peptide)
chain: M[Fc(7)]GGGGGAQTWPQDKCEWDPWTCEHMGSTLE
modifications: not fully specified (bridges); cysteine pairing not given here
B2: Con4-33 (C) (peptide)
chain: M[Fc]GGGGGAQPMNQVECDWDPWTCEHMPRSLE
modifications: not fully specified; cysteine pairing not given here
B3: Con4-1 (C) (peptide)
chain: M[Fc(7)]GGGGGAQVLGGQGCQWDPWTCSHLEDGLE
modifications: not fully specified (bridges); cysteine pairing not given here
B4: Con4-28 (C) (peptide)
chain: M[Fc(7)]GGGGGAQAWGQEGCDWDPWTCEHMLPMLE
modifications: not fully specified (bridges); cysteine pairing not given here
B5: Con4-32 (C) (peptide)
chain: M[Fc]GGGGGAQKSTQDDCDWDPWTCEHMVGPLE
modifications: not fully specified; cysteine pairing not given here
B6: Con4-4 (C) (peptide)
chain: M[Fc]GGGGGAQWYEQDACEWDPWTCEHMAEVLE
modifications: not fully specified; cysteine pairing not given here
B7: Con4-35 (C) (peptide)
chain: M[Fc]GGGGGAQVPRQKDCEWDPWTCEHMYVGLE
modifications: not fully specified; cysteine pairing not given here
B8: Con4-49 (C) (peptide)
chain: M[Fc(4)]GGGGGAQWAAQEECEWDPWTCEHMGRMLE
modifications: not fully specified; cysteine pairing not given here
B9: Con4-18 (C) (peptide)
chain: M[Fc(7)]GGGGGAQWVNEVVCEWDPWTCNHWDTPLE
modifications: not fully specified (bridges); cysteine pairing not given here
B10: Con4-29 (C) (peptide)
chain: M[Fc(7)]GGGGGAQRTTQEKCEWDPWTCEHMESQLE
modifications: not fully specified (bridges); cysteine pairing not given here
B11: Con4-8 (C) (peptide)
chain: M[Fc(4)]GGGGGAQSTIGDMCEWDPWTCAHMQVDLE
modifications: not fully specified; cysteine pairing not given here
B12: AC5-Con4 (C) (peptide)
chain: M[Fc(7)]GGGGGAQAATQEECEWDPWTCRLLQGWLE
modifications: not fully specified (bridges); cysteine pairing not given here
B13: Con4-C5 (C) (peptide)
chain: M[Fc(4)]GGGGGAQAATQEECEWDPWTCEHMPRSLE
modifications: not fully specified (bridges); cysteine pairing not given here
B14: Con4-12 (C) (peptide)
chain: M[Fc(7)]GGGGGAQTQLVSLCEWDPWTCRLLDGWLE
modifications: not fully specified (bridges); cysteine pairing not given here
B15: Con4-19 (C) (peptide)
chain: M[Fc(7)]GGGGGAQVVQVGMCQWDPWTCKHMRLQLE
modifications: not fully specified (bridges); cysteine pairing not given here
B16: Con4-34 (C) (peptide)
chain: M[Fc]GGGGGAQVKTQEHCDWDPWTCEHMREWLE
modifications: not fully specified; cysteine pairing not given here
B17: Con4-15 (C) (peptide)
chain: M[Fc(7)]GGGGGAQQWSWPPCEWDPWTCQTVWPSLE
modifications: not fully specified (bridges); cysteine pairing not given here
B18: Con4-9 (C) (peptide)
chain: M[Fc(4)]GGGGGAQGTSPSFCQWDPWTCSHMVQGLE
modifications: not fully specified; cysteine pairing not given here
B19: Con4-7 (C) (peptide)
chain: M[Fc(4)]GGGGGAQLWQLAVCQWDPQTCDHMGALLE
modifications: not fully specified; cysteine pairing not given here
B20: Con4-20 (C) (peptide)
chain: M[Fc(7)]GGGGGAQQVIGRPCEWDPWTCEHLEGLLE
modifications: not fully specified (bridges); cysteine pairing not given here
B21: AC3-Con4 (C) (peptide)
chain: M[Fc(7)]GGGGGAQDKILEECEWDPWTCRLLQGWLE
modifications: not fully specified (bridges); cysteine pairing not given here
B22: Con4-C4 (C) (peptide)
chain: M[Fc(4)]GGGGGAQTTIGSMCQWDPWTCEHMQGGLE
modifications: not fully specified (bridges); cysteine pairing not given here
B23: Con4-24 (C) (peptide)
chain: M[Fc(7)]GGGGGAQPDTRQGCQWDPWTCRLYGMWLE
modifications: not fully specified (bridges); cysteine pairing not given here
B24: Con4-11 (C) (peptide)
chain: M[Fc(7)]GGGGGAQQGMKMFCEWDPWTCAHIVYRLE
modifications: not fully specified (bridges); cysteine pairing not given here
B25: Con4-6 (C) (peptide)
chain: M[Fc(4)]GGGGGAQWPQTEGCQWDPWTCRLLHGWLE
modifications: not fully specified; cysteine pairing not given here
B26: Con4-41 (C) (peptide)
chain: M[Fc(4)]GGGGGAQNVRQEKCEWDPWTCEHMPVRLE
modifications: not fully specified; cysteine pairing not given here
B27: Con4-22 (C) (peptide)
chain: M[Fc(7)]GGGGGAQVWRSQVCQWDPWTCNLGGDWLE
modifications: not fully specified (bridges); cysteine pairing not given here
B28: Con4-5 (C) (peptide)
chain: M[Fc(4)]GGGGGAQATFARQCQWDPWTCALGGNWLE
modifications: not fully specified; cysteine pairing not given here

Molecular target: T1, human Ang-2
Assay: competition ELISA vs Tie-2

Compared with B1, B2 is 2.4-fold higher in IC50: 0.22 nM for the first, 0.52 nM for the second.

First: B3
Second: B4
The IC50 of the first is 8.2-fold higher: 2.47 nM for the first, 0.3 nM for the second. The second is the more potent here.

Compared with B5, B6 is 6.2-fold lower in IC50: 0.75 nM for the first, 0.12 nM for the second.

B7 and B8 are within 1.5-fold of each other in IC50: 0.18 nM for the first, 0.19 nM for the second.

First: B9
Second: B10
The IC50 of the first is 12-fold higher: 4.8 nM for the first, 0.41 nM for the second. The second is the more potent here.

Compared with B11, B12 is higher in IC50: 1.2 nM for the first, over 1000 nM for the second.

First: B13
Second: B14
The IC50 of the first is lower: 0.16 nM for the first, over 1000 nM for the second.

Compared with B15, B16 is 21-fold lower in IC50: 5.76 nM for the first, 0.28 nM for the second.

B17 and B18 are within 1.5-fold of each other in IC50: 15 nM for the first, 20.1 nM for the second.

Going from B19 to B20, the IC50 falls from over 1000 nM to 0.48 nM. The second is the more potent here.

First: B21
Second: B22
The IC50 of the first is higher: over 1000 nM for the first, 9.8 nM for the second.

Compared with B23, B24 is lower in IC50: over 1000 nM for the first, 9.7 nM for the second. The second is the more potent here.

First: B25
Second: B26
The IC50 of the first is higher: over 1000 nM for the first, 0.26 nM for the second.

Compared with B27, B28 is higher in IC50: 150 nM for the first, over 1000 nM for the second. The first is the more potent here.
